Measured values as given in the DeepSol protein solubility set.

Experiment: soluble on expression in E. coli; label from the status in PepcDB or PDB records
For “MFPLFPNPQTRRTMSVLSEQVDGRPPQPPSGRRGKRWLRAIAAGALLAAGGGASTQPVAQQAPQSHARKVKVLIISMFAPEAQPWIDKLGLTQAVPVPGLSIDYPSVHCNASDVCQLTTGMGKANAASSVSALIHSGQFDLSRAYFLVAGIAGIDPSQGTLGTAAWARYLVDSDLAWEIDAREVPADWPNGFIGINTQGPGQKPPLNYKTEIFRVNEALLQKALALSKGAVLDDNATARAYRANYPSAPANQPPAVVQCDTAAGNTYWHGALLGQREAAWVKLLTDGQGTYCTTQQEDNATFEALTRGSKAGLLDLQRVAVLRTASNFDRPYPGQTPYDSLVGSNSGGFVPSLNNLYLAGGPLVNDIVTRWSVWKHGVPSPLEHHHHHH”, the “soluble on expression in E. coli” value was “not soluble”. For “MGSDKIHHHHHHMKYDVAVYIGRFQPFHNGHLSVVQRSLEVAQHLLILTGSHLASPDTRNPWSSEEREEMIRAALPANWQKRVSFIPIRDHLYSDNLWLTEIQQKVLEEAGEEARIVLVGHRKDRSSYYLDLFPQWDFLEVPRLEAVHSTAIRDAYFSGSEESNYAAALPAGVADYLTAYQQTGRYQWLRDEADYIKGYRQAWAVAPYAPTFVTTDAIVIQSGHVLVVRRKARPGKGLIALPGGYIQQDETVLEGMLRELREETGLKVPKPVLQGSIVENRVFDAPQRSQRGRIITHAFCIHLKPGPLPSVRGGDDAEKAWWMSLADLYAHEDQFFEDHFQIIQHFVSRT”, the “soluble on expression in E. coli” value was “not soluble”. In the case of “MTGPVTRADPTPGLRTGRRPGNPDTRSRILAAARKLFAQNGFDKTSVRSVATGAGVDSALIHHYFGTKRELFLASVDIPVDPTQVIAPVLDIPTGEVGSHLARAVFSVWESPHKPAVVAAFRSAMAGNEPNLIRTFLLEVVLRDLGPRVDEPPGTGMLRMQLVASQMAGVLVTRYILEFEPLASLPVDDLVAIVGPTLQRYLTGALP”, the “soluble on expression in E. coli” value is reported as “not soluble”. With “MSGSTESKKQPRRRFIGRKSGNSNNDKLTTVAENGNEIIHKQKSRIALGRSVNHVPEDILNDKELNEAIKLLPSNYNFEIHKTVWNIRKYNAKRIALQMPEGLLIYSLIISDILEQFCGVETLVMGDVSYGACCIDDFTARALDCDFIVHYAHSCLVPIDVTKIKVLYVFVTINIQEDHIIKTLQKNFPKGSRIATFGTIQFNPAVHSVRDKLLNDEEHMLYIIPPQIKPLSRGEVLGCTSERLDKEQYDAMVFIGDGRFHLESAMIHNPEIPAFKYDPYNRKFTREGYDQKQLVEVRAEAIEVARKGKVFGLILGALGRQGNLNTVKNLEKNLIAAGKTVVKIILSEVFPQKLAMFDQIDVFVQVACPRLSIDWGYAFNKPLLTPYEASVLLKKDVMFSEKYYPMDYYEAKGYGRGETPKHAIE” the “soluble on expression in E. coli” value was “soluble”. For “MSLAQMPLTPNPDQHNAIQRVLKSLHHYQAFLLDGLTGSGKTEVYLQIMHEVLKQGKQVLVLVPEIGLTPQTISRFKSRFHCDVALLHSGLNDSKRLQAWQQAKMGKASIILGTRSAIYTPLPRLGLIILDEEHDLSYKQQEGFRYHARDVALYRGYLEQCPVILGSATPSIDSYHLVEQNKLELLQLNQRAGVALLPKMHLIDLKVAKKNEGLSQILIDQIQHTLDRQEQVLIFLNRRGYAPVLVCESCGWQANCPNCDAHFTLHTQPYGYLHCHHCGTIHRLPETCPECHHHTLKTLGMGTAKVEEHLKTLFPEHDVIRVDRDSTSRVGSWQKIYDRIQHNKPMILLGTQMLAKGHHFPYVTLVAILDIDAGLLSVDVRAPERTAQLIVQVAGRAGRGEHKGHVYMQTLRPDHPMLTTLIEKDYRAVAKDMLEERKAARLPPYRYSVLIRCESRDRDYSQAFLQEIAQMLQHQAGDSIEIWGPIPAPMERKAGRYRAHMVILAQDRARLHFFLRPWWAEVIQLPRQHQLRLSIDVDPQEFNEGHHHHHH”, the “soluble on expression in E. coli” value was “soluble”. In the case of “MSLANLKVNLYGMEFLNPIMTAAGPGAKDGALCQEAAKGGAGAICTKTISVLPADVPRPCMAKTNSGFLNTELWSELPKEQWIEEEYKKVKETGLPVIVSMGYSAEQIAEVAPLVKPYADAVELSTHYVGTDVAPIVNALKAAKAVLDVPVFMKMSPHTDIQTIAKAVEEAGADGLVMINSFGPCMAIDVNTGYPIMGSKAGYGWLSGAPIRPLAIRCIYEASQVVNIPIIGVGGITCGKDVAEMMMAGASAVQVCTEAILKGPSIYGKIAKELNEFLDENGEGHHHHHH”, the “soluble on expression in E. coli” value is reported as “not soluble”. For “MEGYPKIQYHGFIGNNRTAMLVAMNGYIDWGCLPNFNSNAVFSSILDKNKGGYFAIFPSDTTDVYVDQYYKEMTNVLVTEFVKNGKIILRLTDFMPDSEYGKISFPEVHRFVESFSEPIDITIDFKPTFNYLEHHHHHH”, the “soluble on expression in E. coli” value was “not soluble”.
